Test results published in US20220227864A1 (AVA LIFESCIENCE, published 2022).

Tests used:
[1] = biological target: T1, CLL subset 2 typical BCR on TKO cells (FIG. 1B); assay: FACS on TKO cells expressing the BCR, hybridoma supernatant
T1 construct: The light chain is the VL3-21 variant and carries R110; also called CLL subset 2 BCR; BCR of interest
Text: (§1) For the screening procedure, different vectors for the following heavy chain (HC) and light chain (LC) combinations of the corresponding CLL-BCRs were used in the previous transformation, and these combinations were used on the surface of the BCR reconstitution system: [0080] Control (transformation vector without BCR) (see FIG. 1A). [0081] Vector with HC/LC (VL3-21) typical of CLL subset 2 (see FIG. 1B). [0082] Vector with a non-CLL subset 2 HC/LC typical for CLL subset 2 (VL3-21; without target motif R110G) (see FIG. 1C) [0083] Vector with a HC typical for CLL subset 2/a non-CLL subset 2 LC (see FIG. 1D) [0084] Vector with a non-CLL subset 2 HC/a non-CLL subset 2 LC (see FIG. 1E) [0085] Vector with HC/LC typical for CLL subset 2 (VL3-21; including mutation R110G (target motif)) (see FIG. 1F).
(§2) In the first round of selection, supernatants from multiple clones were combined and examined with respect to their binding profile to the selection matrix. A positive binding profile is given if a specific binding to the “BCR-of-Interest” is shown. Groups showing such a profile were singulated, and the binding profile of each clone was characterized again on the selection matrix in a second round of selection. Binding of the monoclonal antibodies was verified using a FACS binding assay with a fluorescently labeled anti-mouse IgG antibody. […]

[2] = biological target: T1, CLL subset 2 typical BCR on TKO cells …; assay: FACS binding assay on TKO cells, fluorescently labeled anti-mouse IgG
Text: as §1, §2

T1 sequence (heavy, as listed by the source, chain 1 of 2): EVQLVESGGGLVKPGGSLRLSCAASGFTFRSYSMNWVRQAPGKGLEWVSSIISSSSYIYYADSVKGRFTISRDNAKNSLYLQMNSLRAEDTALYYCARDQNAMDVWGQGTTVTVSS
T1 sequence (light, as listed by the source, chain 2 of 2): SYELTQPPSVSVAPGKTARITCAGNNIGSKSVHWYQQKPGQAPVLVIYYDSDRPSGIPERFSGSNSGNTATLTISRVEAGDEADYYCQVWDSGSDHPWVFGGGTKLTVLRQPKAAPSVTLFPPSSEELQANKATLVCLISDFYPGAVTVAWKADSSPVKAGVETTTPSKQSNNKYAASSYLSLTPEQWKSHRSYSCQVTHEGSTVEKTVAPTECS

B1: AVA-mAb02 (antibody, V domains shown)
VH: QVQLQQPGAELVRPGVSVKISCKGSGYTFTDYAIHWVKQSHAKSLEWIGVISTYYGDSNYNQKFKGKATMTVNKSSSTAYMELARLTSDDSAIYYCSRDTSNFDYWGQGTTLTVSS
VL: DIQMTQSPSSMYASLGERVTITCKASQDINSHLTWFQQKPGKSPKTLIYRANRLVDGVPSRFSGSGSGQDYSLTISSLEYEDMGIYYCLQYDEFPRTFGGGTKLEIK
notes: Murine monoclonal antibody; Tested as hybridoma supernatant and detected with anti-mouse IgG; also called VL3-21 specific antibody
Does B1 bind [1]?
Result: binds

B2: AVA-mAb01 (antibody, V domains shown)
VH: QVQLQQSGPGLVQPSQSLSITCTVSGFSLTSYGIHWVRQSPGKGLEWLGVIWRGGGTDSNAAFMSRLSITKDNSKSQVFFKMNSLQADDTAIYYCARSRYDEEESMNYWGQGTSVTVSS
VL: QIVLTQSPASLSASVGETVTITCRASGNIHSYLAWYQQKQGKSPQLLVYNAKTLADGVPSRFSGSGSGTQYSLKINSLQPEDFGSYYCQHFWNTPPTFGAGTKLELK
notes: Murine monoclonal antibody from a hybridoma, detected with anti-mouse IgG; also called specific monoclonal antibody against subset-2; the selected antibody
Does B2 bind [2]?
Result: binds
